Measurements as given in patent US20240034813A1 (Janssen / Centocor, published 2024).

Tests used:
[1] = biological target: T1, recombinant cMet/HGFR with c-terminal His-tag, Cy5-labeled (UniProt P08581 25-932, limits assumed, Cy5 label (reacted with Cy5 Mono NHS Ester; sites not stated)); assay: competitive TR-FRET (Eu-amivantamab/Cy5-c-MET), EC50 ratio vs Reference Material; Ex. 12 drug product with rHuPH20, 0 months, 25 C table
T1 construct: Commercial protein; also called Cy5-c-MET; Cy5-labeled c-MET antigen; not shown: C-terminal His-tag
Description: (§1) In this procedure, varying concentrations of unlabeled bispecific EGFR-cMet antibody sample compete with donor fluorophore (Europium (Eu) chelate) labeled bispecific EGFR-cMet antibody for binding to an acceptor fluorophore (Cy5)-labeled c-MET antigen. Excitation of the donor fluorophore results in a transfer of energy to the bound acceptor fluorophore (FRET process). The resultant FRET is detected by emission of light at 665 nm using a microplate reader capable of measuring time-resolved fluorescence. Sample dose response curves are compared to the Reference Material (RM).
(§2) c-MET Binding Materials and Methods. Certified commercial cMet, a recombinant cMet/HGFR with c-terminal His-tag is reacted with certified commercial Cy5 Mono NHS Ester to produce Cy5-labeled c-MET. Validated bispecific EGFR-cMet antibody is reacted with certified commercial Europium (Eu) chelate to produce Eu labeled bispecific EGFR-cMet antibody. […] Fluorescence is then measured by spectrophotometry at 665 nm, plotted against antibody concentration and analyzed by a four-parameter logistic model. The antibody concentration required to obtain half of the maximum fluorescence response (EC50) is determined for RM, assay control and samples. The potencies of assay control and samples are calculated based on the ratio of the sample (or control) and RM EC50 values and reported as a percentage activity relative to the RM.

[2] = biological target: T2, recombinant human EGFR/ErbB1/HER1 with C-terminal His tag, Cy5-labeled (human, UniProt P00533 25-645, Cy5 label (reacted with Cy5 Mono NHS Ester; sites not stated)); assay: competitive TR-FRET (Eu-amivantamab/Cy5-EGFR), EC50 ratio vs Reference Material; Ex. 3 acetate formulation, 6 months at 25 C then 5 freeze/thaw cycles
T2 construct: Commercial protein; also called Cy5-EGFR; Cy5-labeled EGFR antigen; not shown: C-terminal His tag
Description: as §1, with “EGFR” for “c-MET”, “RM.” for “Reference Material (RM).”
as §2, with “EGFR” for “c-MET”, “EGFR,” for “cMet,”, “human EGFR/ErbB1/HER1” for “cMet/HGFR”, “C-terminal His tag” for “c-terminal His-tag”, “EGFR.” for “c-MET.”, “Eu-labeled” for “Eu labeled”

[3] = biological target: T1, recombinant cMet/HGFR with c-terminal …; assay: competitive TR-FRET (Eu-amivantamab/Cy5-c-MET), EC50 ratio vs Reference Material; Ex. 11 drug product, 3 months at 5 C
Description: as §1, §2

[4] = biological target: T2, recombinant human EGFR/ErbB1/HER1 with …; assay: competitive TR-FRET (Eu-amivantamab/Cy5-EGFR), EC50 ratio vs Reference Material; Ex. 2 Formulation 1 (10 mM histidine), T0, 25 C table
Description: as §1, with “EGFR” for “c-MET”, “RM.” for “Reference Material (RM).”
as §2, with “EGFR” for “c-MET”, “EGFR,” for “cMet,”, “human EGFR/ErbB1/HER1” for “cMet/HGFR”, “C-terminal His tag” for “c-terminal His-tag”, “EGFR.” for “c-MET.”, “Eu-labeled” for “Eu labeled”

[5] = biological target: T2, recombinant human EGFR/ErbB1/HER1 with …; assay: competitive TR-FRET (Eu-amivantamab/Cy5-EGFR), EC50 ratio vs Reference Material; Ex. 2 Formulation 3 (acetate), 3 months at 40 C
Description: as §1, with “EGFR” for “c-MET”, “RM.” for “Reference Material (RM).”
as §2, with “EGFR” for “c-MET”, “EGFR,” for “cMet,”, “human EGFR/ErbB1/HER1” for “cMet/HGFR”, “C-terminal His tag” for “c-terminal His-tag”, “EGFR.” for “c-MET.”, “Eu-labeled” for “Eu labeled”

B1: amivantamab (bispecific antibody, human IgG1, kappa)
heavy 1: not shown
light 1: not shown
heavy 2: not shown
light 2: DIQMTQSPSSVSASVGDRVTITCRASQGISNWLAWFQHKPGKAPKLLIYAASSLLSGVPSRFSGSGSGTDFTLTISSLQPEDFATYYCQQANSFPITFGQGTRLEIKRTVAAPSVFIFPPSDEQLKSGTASVVCLLNNFYPREAKVQWKVDNALQSGNSQESVTEQDSKDSTYSLSSTLTLSKADYEKHKVYACEVTHQGLSSPVTKSFNRGEC
notes: The samples tested were high concentration (160 mg/mL) formulations, fresh or stored or stressed; also called JNJ-61186372; bispecific EGFR-cMet antibody
Question: Which “cMET Binding activity relative to Reference Material (%)” value [1] does the source give for B1 here?
Answer: 91%

Question: What about the “EGFR Binding % activity relative to RM” value [2] of the same binder?
Answer: 95%

Question: And the “cMET Binding activity relative to Reference Material (%)” value [3]?
Answer: 97%

Question: What about the “EGFR Binding % activity relative to RM” value [4] of the same binder?
Answer: 103%

Question: And the “EGFR Binding % activity relative to RM” value [5]?
Answer: 46%
